Measured values published in publication PMC5228287 (Food chemistry, 2016).

What was measured:
pancreatic lipase = target: T1, pancreatic lipase (Sus scrofa, UniProt P00591); assay: 4-NPB hydrolysis assay; assay type: biochemical
T1 sequence (P00591 1-450): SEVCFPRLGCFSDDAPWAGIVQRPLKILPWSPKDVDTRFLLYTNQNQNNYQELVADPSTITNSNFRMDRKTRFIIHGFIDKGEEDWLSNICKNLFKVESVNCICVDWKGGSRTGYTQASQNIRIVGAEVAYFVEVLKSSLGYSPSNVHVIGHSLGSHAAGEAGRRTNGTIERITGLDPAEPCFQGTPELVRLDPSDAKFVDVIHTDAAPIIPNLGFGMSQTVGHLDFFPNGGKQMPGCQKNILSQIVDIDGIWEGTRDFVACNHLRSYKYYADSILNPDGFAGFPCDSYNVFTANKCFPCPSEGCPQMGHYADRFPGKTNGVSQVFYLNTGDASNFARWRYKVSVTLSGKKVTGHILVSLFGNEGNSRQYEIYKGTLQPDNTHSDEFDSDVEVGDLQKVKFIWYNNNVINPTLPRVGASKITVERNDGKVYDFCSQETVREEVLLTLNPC

[1] = substrate: CCCC(=O)Oc1ccc([N+](=O)[O-])cc1; assay: Michaelis-Menten kinetics; assay type: biochemical, Sus scrofa

## O=c1c(O)cc([C@H]2Oc3cc(O)cc(O)c3C[C@H]2O)cc2c([C@H]3Oc4cc(O)cc(O)c4C[C@H]3O)cc(O)c(O)c12 [TF, Theaflavin]
Pancreatic lipase
  IC50: > 10 µM

B1: pancreatic lipase (Sus scrofa) (protein)
chain: T1 sequence (P00591 1-450)
[1]
  Km: 149.3 ± 24.2 µM
  Vmax: 1.51e-05 ± 1e-06 µmol/min/mg
